For 17 molecules, optical density results are on record in patent US20210380703A1.

B1: 367_E04 (antibody, V domains shown)
VH: EVQLLESGGGLVQPGGSLRLSCAASGFTFSDYSMNWVRQAPGKGLEWVSSINYNGGYKGYADSVKGRFTISRDNSKNTLYLQMNSLRAEDTAVYYCARSANWHDTHLDYWGQGTLVTVSS
VL: DIQMTQSPSSLSASVGDRVTITCRASQSILSYLNWYQQKPGKAPKLLIYAATSRASGVPSRFSGSGSGTDFTLTISSLQPEDFATYYCQQSYESPLTFGGGTKVEIK
B2: 367_F07 (antibody, V domains shown)
VH: B1 VH with S30D, D31S, S33G, N35H, S49A, S50N, K58T, H106A
VL: B1 VL with L30I, L33V, S94T
B3: 368_A01 (antibody, V domains shown)
VH: B1 VH with D31S, S33G, S50N, K58T, G59S, H106A
VL: B1 VL with L30I, A55H, E93D, S94N
B4: 368_B01 (antibody, V domains shown)
VH: B1 VH with D31S, S33G, S50G, G55S, G59S, H106A
VL: B1 VL with L30S, S94T
B5: 367_E09 (antibody, V domains shown)
VH: B1 VH with S33G, S49A, G55S, H106A
VL: B1 VL with L47V, A51T, S94T
B6: 368_A09 (antibody, V domains shown)
VH: B1 VH with S30D, D31S, S50G, K58T, G59S
VL: B1 VL with L33V, A51V, E93D
B7: 367_G10 (antibody, V domains shown)
VH: B1 VH with S30D, S33G, S50G, K58T, G59S, H106A
VL: B1 VL with L30I, L33V, E93D
B8: 368_A07 (antibody, V domains shown)
VH: B1 VH with D31S, S49A, S50G, G55S, K58T, G59S
VL: B1 VL with S31T, L47V, A51T, Y92N, S94L
B9: 367_H11 (antibody, V domains shown)
VH: B1 VH with D31S, S33G, S49A, S50G, H106A
VL: B1 VL with L30I, L33V, L47V, E93N
B10: 367_F03 (antibody, V domains shown)
VH: B1 VH with D31S, S49A, S50G, G55S, G59S, H106A
VL: B1 VL with L33V, L47V, R54L, Y92D, E93D, S94T
B11: 367_G06 (antibody, V domains shown)
VH: B1 VH with D31S, S33G, S50G, G55S, G59S
VL: B1 VL with S31T, L33V, A51T, R54L, A55H, E93D, S94T
B12: 367_H06 (antibody, V domains shown)
VH: B1 VH with D31S, S33G, S50N, K58T
VL: B1 VL with L30I, S31T, E93D, S94T
B13: 368_A05 (antibody, V domains shown)
VH: B1 VH with D31S, S49A, S50G, G55S, K58T, H106A
VL: B1 VL with L30V, L47V, E93D
B14: 368_D01 (antibody, V domains shown)
VH: B1 VH with D31S, S33G, N35H, S49A, S50N, K58T, G59S, H106A
VL: B1 VL with L47V, Y92D, E93S, S94T
B15: 368_C05 (antibody, V domains shown)
VH: B1 VH with S30D, D31S, S33G, S50G, G55S, K58T, G59S, H106A
VL: B1 VL with L47V, Y92D, E93S, S94N
B16: 367_E11 (antibody, V domains shown)
VH: B1 VH with S30D, D31S, S33G, G55S
VL: B1 VL with L30V, L33V, L47V, A55H, E93D, S94T
B17: 367_G05 (antibody, V domains shown)
VH: B1 VH with S33G, S49A, S50N, K58T, G59S, H106A
VL: B1 VL with L30V, L47V, R54L, E93D, S94T

Residue numbers refer to the chain shown, from its start.

This assay concerns the target Human Fc (human). Nature of the assay: ELISA, negative control.
B1: the optical density was 0.284 OD.
To B2 belongs 0.242 OD; to B3, 0.396 OD.
With B4, the optical density worked out at 0.365 OD.
To B5 belongs 0.249 OD.
Take B6: the optical density came to 0.277 OD.
The molecule B7 came in with an optical density of 0.286 OD.
To B8 belongs 0.261 OD; to B9, 0.323 OD.
To B10 belongs 0.301 OD.
The molecule B11 yielded an optical density of 0.28 OD.
To B12 belongs 0.313 OD.
B13 came in with an optical density of 0.285 OD.
To B14 belongs 0.319 OD; to B15, 0.246 OD; to B16, 0.244 OD.
As for B17, the optical density was 0.283 OD.
